Laboratory results taken from the Human Domainome abundance scans (Beltran et al. 2025).
± gives the uncertainty stated by the source.

B1: Transcriptional regulator ERG, residues 117 to 197; numbered along this chain, P11308 (parent)
chain: NMTTNERRVIVPADPTLWSTDHVRQWLEWAVKEYGLPDVNILLFQNIDGKELCKMTKDDFQRLTPSYNADILLSHLHYLRE

Variants of: B1
Assay: abundance fitness (aPCA) (normalised: wild type 0, dead -1); higher = more abundant; growth selection in yeast, the domain comes from the species named
Conditions: Homo sapiens

Point of comparison: NMTTNERRVIVPADPTLWSTDHVRQWLEWAVKEYGLPDVNILLFQNIDGKELCKMTKLDFQRLTPSYNADILLSHLHYLRE [D58L], abundance fitness -0.03 ± 0.056. Against it:
- NMTTNERRVIVPADPTLWSTDHVRQWLEWAVKEYGLPDVNILLFQNIDGKELCKMTKDDEQRLTPSYNADILLSHLHYLRE [F60E] — lower, -1.18 ± 0.39
- NMTTNERRVIVPADPTLWSTDHVRQWLEWAVKEYGLPDVNILLFQNIDGKELCKMTKDDDQRLTPSYNADILLSHLHYLRE [F60D] — lower, -0.773 ± 0.41
- NMTTNERRVIVPADPTLWSTDHVRQWLEWAVKEYGLPDVNILLFQNIDGKELCKMTKDDCQRLTPSYNADILLSHLHYLRE [F60C] — lower, -0.306 ± 0.11
- NMTTNERRVIVPADPTLWSTDHVRQWLEWAVKEYGLPDVNILLFQNIDGKELCKMTKADFQRLTPSYNADILLSHLHYLRE [D58A] — within error, 0.039 ± 0.054
- NMTTNERRVIVPADPTLWSTDHVRQWLEWAVKEYGLPDVNILLFQNIDGKELCKMTKIDFQRLTPSYNADILLSHLHYLRE [D58I] — within error, 0.055 ± 0.14
- NMTTNERRVIVPADPTLWSTDHVRQWLEWAVKEYGLPDVNILLFQNIDGKELCKMTKTDFQRLTPSYNADILLSHLHYLRE [D58T] — within error, -0.072 ± 0.087
- NMTTNERRVIVPADPTLWSTDHVRQWLEWAVKEYGLPDVNILLFQNIDGKELCKMTKCDFQRLTPSYNADILLSHLHYLRE [D58C] — within error, -0.134 ± 0.092
- NMTTNERRVIVPADPTLWSTDHVRQWLEWAVKEYGLPDVNILLFQNIDGKELCKMTKHDFQRLTPSYNADILLSHLHYLRE [D58H] — within error, 0.202 ± 0.18
- NMTTNERRVIVPADPTLWSTDHVRQWLEWAVKEYGLPDVNILLFQNIDGKELCKMTKWDFQRLTPSYNADILLSHLHYLRE [D58W] — within error, -0.132 ± 0.066
- NMTTNERRVIVPADPTLWSTDHVRQWLEWAVKEYGLPDVNILLFQNIDGKELCKMTKRDFQRLTPSYNADILLSHLHYLRE [D58R] — within error, 0.011 ± 0.046
- NMTTNERRVIVPADPTLWSTDHVRQWLEWAVKEYGLPDVNILLFQNIDGKELCKMTKPDFQRLTPSYNADILLSHLHYLRE [D58P] — within error, 0.103 ± 0.1
- NMTTNERRVIVPADPTLWSTDHVRQWLEWAVKEYGLPDVNILLFQNIDGKELCKMTKKDFQRLTPSYNADILLSHLHYLRE [D58K] — within error, -0.063 ± 0.12
- NMTTNERRVIVPADPTLWSTDHVRQWLEWAVKEYGLPDVNILLFQNIDGKELCKMTKSDFQRLTPSYNADILLSHLHYLRE [D58S] — within error, -0.1 ± 0.084
- NMTTNERRVIVPADPTLWSTDHVRQWLEWAVKEYGLPDVNILLFQNIDGKELCKMTKFDFQRLTPSYNADILLSHLHYLRE [D58F] — within error, -0.096 ± 0.16
- NMTTNERRVIVPADPTLWSTDHVRQWLEWAVKEYGLPDVNILLFQNIDGKELCKMTKQDFQRLTPSYNADILLSHLHYLRE [D58Q] — within error, -0.088 ± 0.083
- NMTTNERRVIVPADPTLWSTDHVRQWLEWAVKEYGLPDVNILLFQNIDGKELCKMTKNDFQRLTPSYNADILLSHLHYLRE [D58N] — within error, -0.169 ± 0.13
- NMTTNERRVIVPADPTLWSTDHVRQWLEWAVKEYGLPDVNILLFQNIDGKELCKMTKYDFQRLTPSYNADILLSHLHYLRE [D58Y] — within error, 0.004 ± 0.12
- NMTTNERRVIVPADPTLWSTDHVRQWLEWAVKEYGLPDVNILLFQNIDGKELCKMTKGDFQRLTPSYNADILLSHLHYLRE [D58G] — within error, -0.078 ± 0.042
- NMTTNERRVIVPADPTLWSTDHVRQWLEWAVKEYGLPDVNILLFQNIDGKELCKMTEDDFQRLTPSYNADILLSHLHYLRE [K57E] — within error, -0.023 ± 0.061
- NMTTNERRVIVPADPTLWSTDHVRQWLEWAVKEYGLPDVNILLFQNIDGKELCKMTPDDFQRLTPSYNADILLSHLHYLRE [K57P] — within error, -0.028 ± 0.088
- NMTTNERRVIVPADPTLWSTDHVRQWLEWAVKEYGLPDVNILLFQNIDGKELCKMTVDDFQRLTPSYNADILLSHLHYLRE [K57V] — within error, -0.127 ± 0.055
- NMTTNERRVIVPADPTLWSTDHVRQWLEWAVKEYGLPDVNILLFQNIDGKELCKMTRDDFQRLTPSYNADILLSHLHYLRE [K57R] — within error, -0.016 ± 0.042
- NMTTNERRVIVPADPTLWSTDHVRQWLEWAVKEYGLPDVNILLFQNIDGKELCKMTSDDFQRLTPSYNADILLSHLHYLRE [K57S] — within error, -0.024 ± 0.062
- NMTTNERRVIVPADPTLWSTDHVRQWLEWAVKEYGLPDVNILLFQNIDGKELCKMTFDDFQRLTPSYNADILLSHLHYLRE [K57F] — within error, -0.15 ± 0.15
- NMTTNERRVIVPADPTLWSTDHVRQWLEWAVKEYGLPDVNILLFQNIDGKELCKMTLDDFQRLTPSYNADILLSHLHYLRE [K57L] — within error, -0.084 ± 0.055
- NMTTNERRVIVPADPTLWSTDHVRQWLEWAVKEYGLPDVNILLFQNIDGKELCKMTNDDFQRLTPSYNADILLSHLHYLRE [K57N] — lower, -0.234 ± 0.14
- NMTTNERRVIVPADPTLWSTDHVRQWLEWAVKEYGLPDVNILLFQNIDGKELCKMTDDDFQRLTPSYNADILLSHLHYLRE [K57D] — within error, -0.093 ± 0.095
- NMTTNERRVIVPADPTLWSTDHVRQWLEWAVKEYGLPDVNILLFQNIDGKELCKMTMDDFQRLTPSYNADILLSHLHYLRE [K57M] — within error, -0.165 ± 0.084
- NMTTNERRVIVPADPTLWSTDHVRQWLEWAVKEYGLPDVNILLFQNIDGKELCKMTADDFQRLTPSYNADILLSHLHYLRE [K57A] — within error, 0.029 ± 0.055
- NMTTNERRVIVPADPTLWSTDHVRQWLEWAVKEYGLPDVNILLFQNIDGKELCKMTCDDFQRLTPSYNADILLSHLHYLRE [K57C] — lower, -0.264 ± 0.12
- NMTTNERRVIVPADPTLWSTDHVRQWLEWAVKEYGLPDVNILLFQNIDGKELCKMTIDDFQRLTPSYNADILLSHLHYLRE [K57I] — higher, 0.18 ± 0.12
- NMTTNERRVIVPADPTLWSTDHVRQWLEWAVKEYGLPDVNILLFQNIDGKELCKMTTDDFQRLTPSYNADILLSHLHYLRE [K57T] — within error, -0.14 ± 0.088
- NMTTNERRVIVPADPTLWSTDHVRQWLEWAVKEYGLPDVNILLFQNIDGKELCKMTQDDFQRLTPSYNADILLSHLHYLRE [K57Q] — within error, -0.159 ± 0.11
